Consider five molecules from patent US20190153459A1, “RECOMBINANT POLYNUCLEOTIDE INVOLVED IN LACTONE SYNTHESIS AND PROCESS FOR SYNTHESIS OF LACTONES THEREOF” (Council of Scientific & Industrial Research, priority 2016, published 2019).

For data set [1], the target named is T1, MiEH2 (Mangifera indica, UniProt A0A1U9ZCB5).
T1 sequence (A0A1U9ZCB5 1-318): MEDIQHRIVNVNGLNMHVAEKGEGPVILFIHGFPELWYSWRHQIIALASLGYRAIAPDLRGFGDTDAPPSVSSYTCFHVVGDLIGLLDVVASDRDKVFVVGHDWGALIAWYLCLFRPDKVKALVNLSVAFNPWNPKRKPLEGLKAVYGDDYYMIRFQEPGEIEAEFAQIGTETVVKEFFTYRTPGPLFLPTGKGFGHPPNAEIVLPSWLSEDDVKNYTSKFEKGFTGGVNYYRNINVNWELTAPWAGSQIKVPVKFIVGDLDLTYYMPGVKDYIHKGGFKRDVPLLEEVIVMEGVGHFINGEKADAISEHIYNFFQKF
Nature of the data set: MiEH2 activity assay and enzyme kinetics with epoxide substrates (HRMS). It counts as biochemical. As to conditions: for product formation by MiEH2 with substrate (HRMS extracted ion chromatogram): 200 μM substrate, pH 7.0, 30° C., FIG. 3; for Vmax: recombinant MiEH2, substrate kinetics.
Protocol: (§1) Similar activity assays were carried out with protein expressed from empty vector for confirmation of EH2 activity. Optimum pH was determined by calculating activity at varied range of pH in phosphate citrate buffer at 30° C., whereas temperature optima was determined by calculating MiEH2 activity in phosphate citrate buffer pH 7 at various temperatures. After incubation and catalytic activity of EH 2, products were extracted in chloroform:methanol (2:1); completely dried in vacuum evaporator and reconstituted in the methanol. HRMS analysis carried out by accurate mass (molecular ion) identification. […] Extracted compounds from CSO and TSO assay reactions were separated by water (A):methanol (B) solvent gradient, 0-1 min 80% (A)/20% (B); 1-2 min 60% (A)/40% (B); 2-4 min 40% (A)/60% (B); 4-11 min 20% (A)/80% (B); 11-16 min 0% (A)/100% (B), hold for 2 min and again back to 80% (A)/20% (B) in 3 min with 2 min hold at flow rate 500 μl min^−1. […] Quantitative analysis of CSO and TSO assay products was done by plotting standard graph of product standards. Full scans for both programs were acquired on positive ion mode with AGC target value of 1E6, resolution of 70,000 at scan range 100-500 m/z, and maximum ion injection time (IT) of 250 ms.

The subject of data set [2] is ethylene treated mango fruits. Nature of the data set: Transient over expression of SEQ ID No. 1 (MiEH2) in mango fruits via agroinfiltration, lactone content by GC-FID. It is filed as in vivo, Mangifera indica. The method, then:
The full length sequence of MiEH2, i.e. SEQ ID No. 1 was cloned in a pBI121 plant expression vector between CaMV 35S promoter and GusA gene. Terminal primers were designed (Table 1A) to clone genes at BamHI restriction site. Resulted correct oriented construct pBI121+SEQ ID No. 1 and pBI121 empty vector as control were transformed in the Agrobacterium GV3101 strain for transient expression studies. Separate Agrobacterium cultures (5 mL) were initiated from individual colonies in YEB medium having appropriate antibiotics and incubated overnight at 28° C. This culture was transferred to 50 mL induction medium comprising 0.5% beef extract, 0.1% yeast extract, 0.5% peptone, 0.5% sucrose, 2 mM MgSO4, […] acetosyringone, 10 mM MES, pH 5.6, having appropriate antibiotics, and again grown overnight. Cultures were recovered by centrifugation on the next day, resuspended in infiltration medium (10 mM MgCl2, 10 mM MES, […] acetosyringone, pH 5.6) till optical density reached 1.0. This suspension was again incubated at 28° C. with gentle agitation for 2 hrs.
Over expression studies for EH2 were carried out by Agrobacterium mediated infiltration in ethylene treated mango fruits at 3DAH stage by using hypodermic syringe. Equal volumes of said constructs i.e. pBI121+MiEH2 and pBI121 empty vector construct were used for infiltration in two different halves of same mango fruit separated by fruit stone. […] Thus control (empty vector) and test over expressions were carried out in same fruit to avoid error in lactone content analysis. Five distinct mango fruits were used for overexpression study of MiEH2. Infiltrated fruits were kept at 25° C. for 2 days in 12 hr dark and 12 hr light conditions, after 2 days; part from each fruit halves was checked by Gus staining (Kapila et al. 1997; Spolaore et al. 2001) to confirm expression of MiEH2 under 35S promoter along with GusA, remaining part of fruit pulp stored in −80° C. until used for lactone analysis by gas chromatography. […] Lactones were analysed from control and test region of fruits. A total of 8 lactones viz. γ-butyrolactone, δ-valerolactone, γ-hexalactone, δ-hexalactone, γ-octalactone, γ-octalactone, γ-decalactone and δ-decalactone were detected from all tissues in GC-MS analysis.
GC-MSD and GC-FID analysis for lactones was carried out using a 7890B GC system Agilent Technologies coupled with Agilent 5977A MSD (Agilent technologies, CA, USA). […] To understand effect of gene over expression by transient expression on lactone biosynthesis, qualitative and quantitative analysis for lactones alone was carried out in the present study. […] Absolute quantification was done using internal standard by normalizing concentrations of all the lactones with that of known concentration of nonyl acetate.

Substrate in data set [3]: c1ccc([C@H]2O[C@H]2c2ccccc2)cc1
Nature of the data set: MiEH2 activity assay and enzyme kinetics with epoxide substrates (HRMS). It counts as biochemical, Mangifera indica. Conditions: other: recombinant MiEH2, substrate kinetics; pH 7.0.
Protocol: as §1

Substrate in data set [4]: c1ccc([C@H]2O[C@@H]2c2ccccc2)cc1
The data set is described as above. It is filed as biochemical, Mangifera indica. As to conditions: other: recombinant MiEH2, substrate kinetics; pH 7.0.
Protocol: as §1

Data set [5] has as its target T1, MiEH2. Nature of the data set: Optimum pH and temperature of MiEH2 activity. It counts as biochemical. The method, then: Similar activity assays were carried out with protein expressed from empty vector for confirmation of EH2 activity. Optimum pH was determined by calculating activity at varied range of pH in phosphate citrate buffer at 30° C., whereas temperature optima was determined by calculating MiEH2 activity in phosphate citrate buffer pH 7 at various temperatures. After incubation and catalytic activity of EH 2, products were extracted in chloroform:methanol (2:1); completely dried in vacuum evaporator and reconstituted in the methanol. HRMS analysis carried out by accurate mass (molecular ion) identification. Identified products from assay reaction were confirmed with mass and retention time indices of authentic standards R,R hydrobenzoin and meso hydro benzoin. Extracted compounds from CSO and TSO assay reactions were separated by water (A):methanol (B) solvent gradient, 0-1 min 80% (A)/20% (B); 1-2 min 60% (A)/40% (B); 2-4 min 40% (A)/60% (B); 4-11 min 20% (A)/80% (B); 11-16 min 0% (A)/100% (B), hold for 2 min and again back to 80% (A)/20% (B) in 3 min with 2 min hold at flow rate 500 μl min^−1. […] Quantitative analysis of CSO and TSO assay products was done by plotting standard graph of product standards. Full scans for both programs were acquired on positive ion mode with AGC target value of 1E6, resolution of 70,000 at scan range 100-500 m/z, and maximum ion injection time (IT) of 250 ms.

[6] abbreviates: pBI121+SEQ ID No. 1 vs empty pBI121 vector in same fruit, 2 days post infiltration.

As for `c1ccc([C@H]2O[C@H]2c2ccccc2)cc1` [CSO, cis-stilbene oxide], on MiEH2 [1], the “product formation by MiEH2 with substrate (HRMS extracted ion chromatogram)” value is reported as “product formation” and the Vmax result is “CSO- 26.5252 ± 4.81 μM min^−1mg^−1”.

Take `c1ccc([C@H]2O[C@@H]2c2ccccc2)cc1` (relative stereo) [TSO, trans-stilbene oxide]: at MiEH2 [1], the “product formation by MiEH2 with substrate (HRMS extracted ion chromatogram)” value is “product formation” and the Vmax entry is “TSO- 1055.55 ± 55.55 μM min^−1mg^−1”.

B1: SEQ ID No. 1: 957 bp polynucleotide encoding epoxide hydrolase 2, cloned in pBI121 plant expression vector, agroinfiltrated in mango (nucleic acid)
DNA: ATGGAAGATATACAGCACAGAATTGTGAATGTCAATGGCTTAAACATGCACGTGGCAGAGAAAGGCGAAGGTCCAGTCATTCTCTTCATTCACGGTTTTCCCGAACTGTGGTACTCCTGGCGGCATCAGATCATCGCCTTGGCTTCCCTCGGCTACCGAGCCATTGCTCCGGATCTACGTGGCTTCGGTGATACTGACGCGCCGCCGTCTGTCTCGAGTTACACGTGTTTCCACGTGGTGGGGGACCTCATTGGACTTCTCGACGTCGTTGCCTCTGATCGGGATAAGGTTTTCGTGGTGGGCCATGATTGGGGTGCTCTTATTGCTTGGTACTTGTGCTTGTTTAGACCGGATAAGGTCAAAGCTTTGGTCAACTTGAGTGTTGCGTTTAATCCCTGGAACCCCAAGAGGAAGCCACTTGAGGGTTTGAAAGCTGTTTATGGTGACGATTATTACATGATCAGATTTCAGGAGCCTGGTGAGATAGAAGCTGAGTTTGCCCAGATTGGTACTGAGACAGTTGTCAAGGAATTCTTTACATACAGGACACCTGGTCCTCTTTTTCTCCCTACAGGTAAAGGATTTGGACATCCCCCAAATGCTGAAATTGTCTTACCCTCTTGGCTATCAGAGGATGATGTTAAAAACTACACCAGCAAATTTGAGAAAGGCTTTACAGGAGGAGTGAACTATTACCGTAATATAAACGTGAACTGGGAACTTACAGCTCCTTGGGCCGGGAGTCAAATAAAGGTTCCTGTTAAGTTCATCGTGGGTGACCTGGACCTGACATATTATATGCCAGGAGTCAAGGATTACATACACAAAGGTGGGTTCAAGCGAGATGTGCCATTATTGGAAGAAGTGATTGTAATGGAAGGTGTAGGTCACTTCATTAATGGAGAAAAGGCTGATGCAATCAGTGAGCACATATACAACTTTTTTCAGAAGTTCTGA
modifications: cDNA
notes: 957 bp polynucleotide encoding epoxide hydrolase 2, cloned in pBI121 plant expression vector, agroinfiltrated in mango
Consider B1, for which the “lactone content on transient over expression” value in data set [2] (Alphonso mango) is on record as “significant increase”. Further, in data set [2] (setting [6]), the “increase in γ-hexalactone content compared to control tissue” value was determined as 1.96 fold, the “increase in δ-hexalactone content compared to control tissue” value is listed as 1.98 fold and the “increase in δ-valerolactone content compared to control tissue” value is 1.46 fold.

B2: MiEH2 (Mangifera indica) (protein)
chain: T1 sequence (A0A1U9ZCB5 1-318)
B2: the values for the Km result in data set [3] and in data set [4] were “CSO- 0.165 ± 0.044 mM” and “TSO- 0.113 ± 0.003 mM”, respectively.

B3: MiEH2: recombinant epoxide hydrolase 2 polypeptide of Mangifera indica, 318 amino acids, 6×His tagged (protein, listed as Mangifera indica)
chain: T1 sequence (A0A1U9ZCB5 1-318)
modifications: 6xHis tag
notes: recombinant epoxide hydrolase 2 polypeptide of Mangifera indica, 318 amino acids, 6×His tagged
Take B3: the Optimum temperature with MiEH2 [5] (phosphate citrate buffer pH 7, various temperatures) came out at 45 °C. In the data set with MiEH2 [5] (phosphate citrate buffer, 30° C., varied pH), the “Optimum pH” value is reported as 8.
